Data as given in patent US11473061B2, “Systems and methods for growth of intestinal cells in microfluidic devices” (Cedars-Sinai Medical Center, priority 2016, dated 2022).

Tests used:
iFGEs = experiment: Seahorse mitochondrial stress test in iFGEs; format: cell-based, human; conditions: low-dose EDC treatment
Protocol: (§2) The Seahorse XF^e24 Extracellular Flux Analyzer (Seahorse Biosciences) was used to perform mitochondrial stress tests and obtain real-time measurements of oxygen consumption rate (OCR) in cells. iFGEs and iHTNS treated with or without EDCs were seeded in a 24-well Seahorse culture plate at a density of 10,000-15,000 cells/well. For analysis of OCR, cells were reconstituted in Seahorse base medium and were allowed to settle for 1 hour at 37° C. in non-CO2 incubator before measurements. Chemical reagents (Sigma) were used at final concentrations as follows: 1 μM Oligomycin—an ATP synthase inhibitor, 1 μM (FCCP) carbonyl cyanide 4-(trifluoromethoxy)phenylhydrazone—an uncoupling agent, and a mixture of 0.50 μM antimycin A—a cytochrome C reductase inhibitor and 0.5 μM rotenone—a complex I inhibitor. Results were normalized to protein concentration determined by BCA assay (Thermo Scientific).

iHTNs = experiment: Seahorse mitochondrial stress test in iHTNs; format: cell-based, human; conditions: low-dose EDC treatment
Protocol: as §2

[1] = system: human intestinal epithelial cells derived from IPSCs; experiment: Transepithelial electrical resistance (TEER) in microfluidic chips; format: cell-based; conditions: 10 ng/ml of IFNgamma, basal administration, over time
Protocol: (§1) Human intestinal epithelial cells derived from IPSCs were treated with 10 ng/ml of IFNgamma. The basal administration of IFNg leads to a decrease in transepithelial resistance and an increase in the efflux of dextran FITC in human intestinal epithelial cells derived from IPSCs. Basically this means that the intestinal epithelium is more permeable in response to this cytokine.

hindgut intestinal cells = experiment: TEER of hindgut intestinal cells grown in transwell; format: cell-based, human; conditions: for TEER / transepithelial resistance: transwell, compared to control
Excerpt: FIG. 76. Depiction of exemplary transwell apparatus, including deposit of cells on a membrane and measurement of electrical properties via electrodes spanning both sides of the chamber.
FIG. 79. TEER measurement of hindgut intestinal cells growth in transwell.
FIG. 81. Another depiction of IFNγ responsiveness for cells grown in a transwell system.

[2] = system: human intestinal epithelial cells derived from IPSCs; experiment: Dextran FITC permeability of iPSC-derived intestinal epithelium; format: cell-based; conditions: for basal accumulation of FITC dextran: after addition to the apical layer; for permeability co-efficient (FITC dextran added to the apical channel): microfluidic chips
Protocol: as §1

[3] = system: STAT1 and IFNgamma responsive genes; experiment: IFNgamma response of iPSC-derived intestinal cells in small microfluidic device; format: cell-based, human; conditions: IFNgamma administered to the lower channel
Protocol: In one embodiment, iPSCs were directed to form HIOs and were subsequently dissociated to a single cell suspension. These cells were then seeded into a small microfluidic device (SMD) which is composed of two chambers separated by a porous flexible membrane. See, FIG. 40.

Caco2 cells = experiment: IFNgamma response of Caco-2 cells on chips; format: cell-based, human
[4] = human intestinal epithelial cells derived from IPSCs

## O=C(O)C(F)(F)C(F)(F)C(F)(F)C(F)(F)C(F)(F)C(F)(F)C(F)(F)F [PFOA, perfluorooctanoic acid]
iFGEs
  effect on spare respiratory capacity: did not show any effect
iHTNs
  effect on spare respiratory capacity: did not show any effect

## TNFalpha
[1]; n=4
  transepithelial electrical resistance (TEER): increased TEER over time comparable to controls
Hindgut intestinal cells; transwell system
  intestinal permeability: does not elicit any change
[2]; [4]
  basal accumulation of FITC dextran: comparable
[2]; human intestinal epithelial cells derived from IPSCs, microfluidic cultures
  intestinal permeability: does not elicit any change
[2]
  permeability co-efficient (FITC dextran added to the apical channel): comparable

## tributyltin [TBT]
iHTNs
  effect on spare respiratory capacity: significant impairment

B1: IFNgamma: inflammatory cytokine interferon-gamma (protein, UniProt P01579 24-161, looked up)
Interferon gamma: QDPYVKEAENLKKYFNAGHSDVADNGTLFLGILKNWKEESDRKIMQSQIVSFYFKLFKNFKDDQSIQKSVETIKEDMNVKFFNSNKKKRDDFEKLTNYSVTDLNVQRKAIHELIQVMAELSPAAKTGKRKRSQMLFRG
[1]; n=4
  transepithelial electrical resistance (TEER): loss
[1]; n=4, listed as IFNg
  transepithelial electrical resistance (TEER): decrease
Hindgut intestinal cells
  TEER / transepithelial resistance: decrease
Hindgut intestinal cells; listed as IFNγ
  TEER / transepithelial resistance: increase
[3]
  IFNgamma responsive genes (IDO1, GBP4 and/or GBP5): significant upregulation
  phospholipase A2 group 2A and Muc4 expression: upregulated
  phosphorylation of STAT1: phosphorylation
Caco2 cells; Caco2 cells
  genes associated with intestinal epithelial subtypes: no corresponding upregulation
Caco2 cells; Caco-2 epithelial cells grown on chips vs enteroids grown on chips
  response to IFN-gamma (relative expression of gene markers): do not show the same response
[2]; [4]
  efflux of dextran FITC: increase
[2]; human intestinal epithelial cells derived from IPSCs, listed as IFNγ
  basal accumulation of FITC dextran: basal accumulation
[2]
  permeability co-efficient (FITC dextran added to the apical channel): increase
